± gives the uncertainty stated by the source.
B1: Zinc finger MYM-type protein 3, residues 405 to 444; numbered along this chain, Q14202 (parent)
chain: DATRCSICQKTGEVLHEVSNGSVVHRLCSDSCFSKFRANK
B2: Kinesin-like protein KIF16B, residues 1213 to 1273; numbered along this chain, Q96L93 (parent)
chain: ETWTVFRRYSRFREMHKTLKLKYAELAALEFPPKKLFGNKDERVIAERRSHLEKYLRDFFS

Variants of: B1
Assay: abundance fitness (aPCA) (normalised: wild type 0, dead -1); higher = more abundant; growth selection in yeast, the domain comes from the species named
Conditions: Homo sapiens

Abundance fitness of substitutions, site by site:
C28: N -0.765 ± 0.11 | P -0.639 ± 0.083 | Q -0.809 ± 0.082 | R -0.873 ± 0.061 | T -0.853 ± 0.094 | V -0.808 ± 0.063 | W -1.02 ± 0.08 | Y -0.85 ± 0.12
S29: A -0.363 ± 0.061 | C -0.591 ± 0.077 | D -0.404 ± 0.076 | E -0.325 ± 0.063 | F -1.05 ± 0.14 | G -0.277 ± 0.054 | H -0.683 ± 0.16 | I -0.857 ± 0.13 | K -0.602 ± 0.09 | L -0.755 ± 0.067 | M -0.622 ± 0.086 | P -0.487 ± 0.074 | Q -0.427 ± 0.087 | R -0.684 ± 0.062 | T -0.771 ± 0.1 | V -0.596 ± 0.062 | W -0.669 ± 0.07 | Y -0.936 ± 0.24
D30: C -1.66 ± 0.31 | E -0.041 ± 0.066 | F -0.632 ± 0.13 | G -0.269 ± 0.056 | H -0.425 ± 0.15 | I -0.734 ± 0.21 | K -0.109 ± 0.096 | L -0.398 ± 0.057 | M -0.28 ± 0.088 | N -0.721 ± 0.31 | P -0.371 ± 0.1 | Q -0.079 ± 0.096 | R -0.231 ± 0.056 | S -0.387 ± 0.073 | T -0.219 ± 0.066 | V -0.384 ± 0.062 | W -1.07 ± 0.12 | Y -0.857 ± 0.34
S31: A -0.063 ± 0.058 | C -0.185 ± 0.18 | D 0.094 ± 0.09 | F -0.166 ± 0.083 | G 0.055 ± 0.052 | H -0.16 ± 0.093 | I 0.064 ± 0.15 | K 0.081 ± 0.086 | L -0.022 ± 0.059 | M -0.006 ± 0.072 | N -0.089 ± 0.095 | P -0.025 ± 0.072 | Q 0.042 ± 0.075 | R 0.047 ± 0.053 | T 0.027 ± 0.082 | V -0.032 ± 0.056 | W -0.218 ± 0.066
C32: D -0.301 ± 0.1 | F -0.968 ± 0.16 | G -0.576 ± 0.054 | H -0.59 ± 0.11 | I -0.587 ± 0.19 | K -0.727 ± 0.097 | L -0.676 ± 0.076 | N -0.808 ± 0.1 | P -0.763 ± 0.13 | Q -0.345 ± 0.079 | R -0.832 ± 0.071 | S -0.645 ± 0.079 | T -0.565 ± 0.1 | V -0.742 ± 0.068
F33: A 0.134 ± 0.055 | C -0.11 ± 0.15 | D -0.016 ± 0.081 | E 0.175 ± 0.077 | G -0.044 ± 0.05 | H 0.073 ± 0.095 | I -0.067 ± 0.11 | K 0.03 ± 0.067 | L 0.256 ± 0.054 | M 0.187 ± 0.065 | N 0.01 ± 0.15 | P -0.186 ± 0.074 | R 0.106 ± 0.051 | S -0.015 ± 0.058 | T -0.072 ± 0.065 | W 0.154 ± 0.06 | Y -0.094 ± 0.1
S34: A 0.203 ± 0.056 | C -0.729 ± 0.098 | D 0.203 ± 0.1 | E 0.32 ± 0.062 | F -0.18 ± 0.087 | G 0.137 ± 0.053 | I -0.126 ± 0.12 | K 0.206 ± 0.068 | L -0.023 ± 0.061 | M -0.039 ± 0.17 | P -0.114 ± 0.064 | Q 0.382 ± 0.083 | R 0.076 ± 0.054 | T 0.125 ± 0.06 | W -0.187 ± 0.075 | Y -1.01 ± 0.24
K35: A 0.119 ± 0.054 | C -0.959 ± 0.11 | D 0.053 ± 0.076 | E 0.166 ± 0.056 | F 0.052 ± 0.19 | H -0.03 ± 0.084 | L -0.127 ± 0.055 | M 0.078 ± 0.07 | N 0.03 ± 0.34 | P -0.471 ± 0.074 | Q 0.146 ± 0.067 | S 0.02 ± 0.058 | T 0.058 ± 0.066 | W -0.84 ± 0.084 | Y -0.175 ± 0.26
F36: A 0.042 ± 0.056 | D -0.082 ± 0.084 | E 0.029 ± 0.063 | G -0.206 ± 0.051 | H -0.053 ± 0.1 | I -0.061 ± 0.072 | K -0.426 ± 0.1 | M -0.296 ± 0.39 | N -0.772 ± 0.14 | Q 0.002 ± 0.074 | R -0.236 ± 0.054 | S -0.178 ± 0.064 | T -0.176 ± 0.07 | V -0.085 ± 0.066 | W 0.147 ± 0.057 | Y -0.22 ± 0.089
R37: A -0.003 ± 0.056 | C -0.093 ± 0.071 | D 0.143 ± 0.08 | E 0.395 ± 0.061 | F -0.506 ± 0.088 | H 0.137 ± 0.086 | I -0.512 ± 0.13 | K 0.199 ± 0.067 | L -0.304 ± 0.058 | N 0.135 ± 0.11 | P -0.18 ± 0.079 | Q 0.106 ± 0.069 | S 0.048 ± 0.057 | T 0.043 ± 0.064 | V -0.23 ± 0.057 | W -0.288 ± 0.07 | Y -0.283 ± 0.15
A38: D -0.139 ± 0.076 | E 0.015 ± 0.059 | F -0.259 ± 0.16 | G 0.011 ± 0.05 | H -0.524 ± 0.15 | I -0.215 ± 0.079 | K -0.228 ± 0.086 | L -0.265 ± 0.078 | M -0.033 ± 0.094 | N -0.461 ± 0.23 | P -0.354 ± 0.068 | Q -0.072 ± 0.064 | R -0.199 ± 0.052 | S -0.2 ± 0.061 | V -0.233 ± 0.071 | W -0.353 ± 0.059 | Y -0.338 ± 0.36
N39: A 0.015 ± 0.062 | C -0.319 ± 0.11 | D -0.228 ± 0.13 | E 0.128 ± 0.076 | G 0.017 ± 0.058 | H -0.212 ± 0.087 | I -0.022 ± 0.089 | K 0.167 ± 0.083 | L 0.037 ± 0.065 | M 0.048 ± 0.07 | P 0.043 ± 0.073 | Q 0.29 ± 0.078 | R 0.081 ± 0.055 | S 0.003 ± 0.067 | T 0.112 ± 0.065 | V 0.058 ± 0.066 | W -0.192 ± 0.076
K40: A -0.047 ± 0.11 | C 0.205 ± 0.16 | E 0.077 ± 0.09 | F -0.128 ± 0.15 | G 0.211 ± 0.064 | H 0.222 ± 0.08 | I 0.012 ± 0.072 | L -0.095 ± 0.11 | N 0.15 ± 0.13 | P -0.12 ± 0.17 | R 0.023 ± 0.068 | S 0.119 ± 0.086 | T 0.138 ± 0.066 | V 0.112 ± 0.1 | W -0.116 ± 0.14 | Y -0.072 ± 0.45

Variants of: B2
Assay: as above
Conditions: Homo sapiens

Abundance fitness, by site and new letter:
E1: D -0.001 ± 0.12 | G -0.62 ± 0.39 | K -0.26 ± 0.14 | L -0.75 ± 0.38 | M -0.343 ± 0.48 | N -0.153 ± 0.42 | V -0.846 ± 0.21 | W -0.421 ± 0.27
T2: A -0.687 ± 0.3 | C -0.5 ± 0.47 | E -0.18 ± 0.24 | G -0.721 ± 0.28 | I 0.085 ± 0.12 | K -0.409 ± 0.14 | L 0.274 ± 0.19 | M -0.538 ± 0.09 | N -0.286 ± 0.14 | P 0.047 ± 0.094 | Q -0.541 ± 0.27 | S -0.523 ± 0.12 | V -0.165 ± 0.14 | W -0.146 ± 0.096 | Y -0.352 ± 0.42
W3: A -0.66 ± 0.14 | C -0.761 ± 0.39 | D -0.022 ± 0.12 | E -0.088 ± 0.13 | F 0.086 ± 0.15 | G 0.039 ± 0.072 | I -0.655 ± 0.18 | K -0.051 ± 0.092 | L -0.45 ± 0.087 | M -0.274 ± 0.094 | N -0.024 ± 0.13 | Q -0.771 ± 0.24 | R -0.232 ± 0.06 | S -0.152 ± 0.13 | T -0.432 ± 0.24 | V -0.521 ± 0.19 | Y -0.424 ± 0.22
T4: A -0.087 ± 0.057 | C 0.079 ± 0.055 | D 0.178 ± 0.091 | E 0.223 ± 0.053 | F -0.124 ± 0.057 | G 0.085 ± 0.046 | H -0.406 ± 0.077 | I -0.23 ± 0.079 | K -0.15 ± 0.058 | L -0.318 ± 0.045 | M -0.077 ± 0.065 | N 0.308 ± 0.045 | P -0.102 ± 0.049 | Q 0.119 ± 0.056 | R -0.256 ± 0.043 | S 0.109 ± 0.029 | V -0.319 ± 0.05 | W 0.033 ± 0.062 | Y -0.139 ± 0.058
V5: A 0.161 ± 0.048 | D -0.156 ± 0.11 | E -0.486 ± 0.12 | G 0.22 ± 0.06 | I -0.044 ± 0.08 | K 0.318 ± 0.25 | L 0.035 ± 0.1 | M 0.125 ± 0.055 | P -0.442 ± 0.22 | Q -0.093 ± 0.05 | R -0.041 ± 0.08 | S -0.023 ± 0.086 | T 0.094 ± 0.078 | W 0.086 ± 0.13
F6: A -0.241 ± 0.088 | C -0.842 ± 0.23 | D -0.474 ± 0.33 | E -0.161 ± 0.12 | G -0.168 ± 0.061 | H -0.541 ± 0.29 | I -0.044 ± 0.095 | K -0.442 ± 0.26 | L -0.242 ± 0.073 | M -0.443 ± 0.13 | N -0.451 ± 0.12 | P -0.227 ± 0.061 | Q -0.402 ± 0.18 | R -0.601 ± 0.072 | S -0.215 ± 0.064 | T -0.352 ± 0.096 | V -0.107 ± 0.084 | Y -0.69 ± 0.14
R7: A 0.022 ± 0.078 | C 0.084 ± 0.14 | F 0.078 ± 0.11 | G 0.186 ± 0.045 | H 0.225 ± 0.23 | K 0.227 ± 0.069 | L -0.025 ± 0.068 | M -0.04 ± 0.092 | N -0.131 ± 0.14 | P -0.161 ± 0.14 | Q 0.164 ± 0.097 | S 0.141 ± 0.077 | T -0.02 ± 0.14 | V -0.042 ± 0.056
R8: A 0.334 ± 0.083 | C 0.282 ± 0.056 | D -0.271 ± 0.13 | E -0.494 ± 0.085 | G 0.097 ± 0.046 | H -0.198 ± 0.33 | I 0.37 ± 0.076 | K 0.295 ± 0.055 | L 0.317 ± 0.041 | M 0.284 ± 0.066 | N -0.31 ± 0.36 | P -0.092 ± 0.047 | Q 0.057 ± 0.087 | S 0.12 ± 0.04 | T 0.005 ± 0.079 | V 0.26 ± 0.063 | W 0.02 ± 0.086 | Y 0.048 ± 0.07
Y9: A -0.119 ± 0.08 | C 0.123 ± 0.091 | E -0.858 ± 0.19 | G 0.245 ± 0.042 | I 0.156 ± 0.16

From the Human Domainome abundance scans (Beltran et al. 2025)
